{"source": "paper PMC12302472", "origin": "cited, not measured here", "target": "ATOX1 (Homo sapiens) (UniProt O00244)", "sequence (O00244 whole entry)": "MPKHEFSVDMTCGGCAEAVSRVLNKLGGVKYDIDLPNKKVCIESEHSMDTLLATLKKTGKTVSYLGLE", "test": "SPR", "data": [{"substance": "MEMO1 (from UniProt Q9Y316)", "values": [{"measurement": "Kd", "value": 0.21, "unit": "µM"}]}]}
